How the values were obtained:
Assay type in all cases: cell-based
[1] = biological target: T1, human ALCAM (ALCAM1-583, cytosolic tail ALCAM551-583) (Homo sapiens, UniProt Q13740); test: Ang II-induced p65/PCNA expression in AT1R-CHO cells transfected with human ALCAM (full length or cytosolic tail); conditions: Ang II 1 μM, co-transfection (FIG. 3G, 1E)
T1 construct: expressed in transfected cells; host or cells: AT1R-CHO (CHO stably transfected with human AT1R-Rluc8), transient transfection
T1 sequence (Q13740 551-583): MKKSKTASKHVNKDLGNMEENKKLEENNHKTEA
Method: (§1) Adult retinal pigment epithelial (ARPE) cells were cultured in Dulbecco's modified Eagle's medium (DMEM)/F12 endothelial cell growth supplement (ECGS) supplemented media. Chinese Hamster Ovary (CHO) cells were cultured using F12 media (10% FCS with 2 mM glutamine). Human microvascular endothelial cells (HMEC) were cultured in MCDB 131 medium (10% FCS with 10 mM glutamine, EGF and hydrocortisone).
(§2) 100 ng of AT1R-Rluc8 construct was transfected into CHO cells using Lipofectamine 2000 (Thermo). Stable transfectants were selected using G418. AT1R-CHO were then transiently transfected with the IgSF CAM and/or RAGE constructs using Lipofectamine 2000 (Invitrogen) and incubated for 16h.
(§3) Oligonucleotides were designed and ordered to generate the ALCAM, BCAM and MCAM intracellular (cytosolic) domains. These included a 5′ NheI site, Kozak sequence and initiating Methionine and then DNA sequences corresponding to ALCAM residues 552-583, BCAM residues 569-628 and MCAM residues 584-637 respectively (Note that as residue 551 of ALCAM is Methionine, the cytosolic tail of ALCAM effectively corresponded to residues 551-583). The pCIneo parental vector was digested with NheI and NotI restriction enzymes, and the DNA of the fragments of the ALCAM, BCAM and MCAM tails/cytosolic domains were ligated into the digested plasmid. After transformation and recovery, colonies were screened and individual clones sequenced. The sequence of the insert was confirmed by DNA sequencing (Micromon, Monash University). A full-length clone of Mouse ALCAM (BC027280) was purchased from Origene. The untagged clone was supplied in the vector pCMV6. Overlapping DNA sequences were ordered to generate the ALCAM559-580 fragment oligonucleotide. These included a 5′ NheI site, Kozak sequence and initiating Methionine and then DNA sequences corresponding to ALCAM residues 559-580. The pCIneo parental vector was digested with NheI and NotI restriction enzymes, and the ALCAM559-580 construct DNA was ligated into the digested plasmid. After transformation and recovery, colonies were screened and individual clones sequenced.
(§4) After 2 hours of exposure to Ang II (1 μM) cells were placed in Trizol, mRNA extracted and cDNA synthesized. Changes in the gene expression of the NFκB subunit, p65 (RelA) or NFκB-activated target genes (e.g ICAM-1) were estimated by quantitative real-time RT-PCR, performed using the TaqMan system based on real-time detection of accumulated fluorescence (ABI Prism 7700, Perkin-Elmer Inc, PE Biosystems, Foster City, Calif., USA). Gene expression was normalized to 18S mRNA and reported as fold change compared to the level of expression in untreated control mice/cells, which were given an arbitrary value of 1.

[2] = tested on: human ALCAM (ALCAM1-583, cytosolic tail ALCAM551-583); test: as above; conditions: Ang II 1 μM, co-transfection, text: cytosolic tail ALCAM551-583, legend: full length ALCAM1-583
Method: as §1, §2, §3, §4

[3] = biological target: T2, cytosolic tail of BCAM, BCAM569-628 (Homo sapiens, UniProt P50895); test: Ang II-induced p65 expression in AT1R-CHO cells transfected with cytosolic tail of BCAM; design: corresponds to residues 569-628 of BCAM plus an initiating Methionine; initiating Methionine (N); expressed in transfected cells; host or cells: AT1R-CHO (CHO stably transfected with human AT1R-Rluc8); insert in pCIneo; conditions: Ang II 1 μM, co-transfection (FIG. 3H)
T2 sequence (P50895 with tags, fused parts or gaps): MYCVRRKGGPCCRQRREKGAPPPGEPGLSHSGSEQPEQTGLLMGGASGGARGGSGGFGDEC
Method: as §1, §2
Oligonucleotides were designed and ordered to generate the ALCAM, BCAM and MCAM intracellular (cytosolic) domains. […]
as §4, with “Gene expression was normalized to 18S mRNA and reported as fold change compared to the level of expression in untreated control mice/cells, which were given an arbitrary value of 1.” left out

[4] = biological target: T3, cytosolic tail of human EpCAM, EpCAM289-314 (Homo sapiens, UniProt P16422); test: Ang II-induced p65 expression in AT1R-CHO cells transfected with cytosolic tail of EpCAM; conditions: Ang II 1 μM, co-transfection (FIG. 3J)
T3 construct: corresponds to residues 289-314 of EpCAM plus an initiating Methionine; initiating Methionine (N); expressed in transfected cells; host or cells: AT1R-CHO (CHO stably transfected with human AT1R-Rluc8), transient transfection
T3 sequence (P16422 with tags, fused parts or gaps limits assumed): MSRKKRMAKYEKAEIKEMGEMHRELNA
Method: as §1, §2, §4

[5] = biological target: T4, full length RAGE1-404 transactivated by C5a receptor 1 (Homo sapiens, UniProt Q15109); test: C5a-induced ICAM-1 expression in ARPE cells transfected with C5aR1 and full length RAGE; conditions: C5a 1 μM, co-expression (FIG. 6B)
T4 construct: expressed in transfected cells; host or cells: human ARPE (adult retinal pigment epithelial) cells
T4 sequence (Q15109 23-404): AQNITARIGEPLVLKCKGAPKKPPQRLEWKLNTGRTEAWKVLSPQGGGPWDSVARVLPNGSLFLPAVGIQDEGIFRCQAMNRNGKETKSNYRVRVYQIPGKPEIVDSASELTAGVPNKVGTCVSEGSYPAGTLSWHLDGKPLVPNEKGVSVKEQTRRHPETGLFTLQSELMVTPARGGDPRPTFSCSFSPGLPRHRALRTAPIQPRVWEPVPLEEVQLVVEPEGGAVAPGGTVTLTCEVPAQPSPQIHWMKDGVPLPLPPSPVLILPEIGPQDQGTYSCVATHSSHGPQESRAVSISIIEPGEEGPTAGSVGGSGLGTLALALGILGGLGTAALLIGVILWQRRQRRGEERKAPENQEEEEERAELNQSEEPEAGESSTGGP

induction of p65-NFκB expression by Ang II via transactivation of the cytosolic tail of human ALCAM, ALCAM551-583 [1]: prevents induction
induction of p65-NFκB expression by Ang II via transactivation of BCAM569-628 [3]: prevents induction
induction of p65-NFκB expression by Ang II via transactivation of EpCAM289-314 [4]: prevents induction
RAGE-dependent induction of ICAM-1 expression following transactivation of RAGE by C5a receptor 1 [5]: inhibits
Sequence: MKHVNKDLGNMEENKKLEENNHK [ALCAM559-580]
induction of p65-NFκB expression by Ang II via transactivation of human ALCAM (FIG. 3E) [2]: prevents induction
p65-NFκB dependent induction of PCNA expression by Ang II via human ALCAM (FIG. 3F) [2]: prevents induction

— US20220169693A1, “Screening Assays, Modulators and Modulation of Intracellular Signalling Mediated by Immunoglobulin Superfamily Cell Adhesion Molecules” (Monash University, priority 2018, published 2022)
